Positions count from the first letter of the chain named. In names and notes the source's numbering stands. Ends that are not written are not given here.
B1: talin 2300–2541 (C-terminal actin-binding domain, wild type) (domain or fragment, mouse, UniProt P26039 2300-2541, looked up)
chain: DPTVIAENELLGAAAAIEAAAKKLEQLKPRAKPKEADESLNFEEQILEAAKSIAAATSALVKAASAAQRELVAQGKVGAIPANALDDGQWSQGLISAARMVAAATNNLCEAANAAVQGHASQEKLISSAKQVAASTAQLLVACKVKADQDSEAMKRLQAAGNAVKRASDNLVKAAQKAAAFEDQENETVVVKEKMVGGIAQIIAAQEEMLRKERELEEARKKLAQIRQQQYKFLPSELRDEH
B2: talin 2300–2541 V2376D (domain or fragment, mouse, UniProt P26039 2300-2541, looked up)
chain: B1 chain with V77D
B3: talin 2300–2541 Q2437E (domain or fragment, mouse, UniProt P26039 2300-2541, looked up)
chain: B1 chain with Q138E
B4: talin 2300–2541 L2323A (domain or fragment, mouse, UniProt P26039 2300-2541, looked up)
chain: B1 chain with L24A
B5: talin 2300–2541 V2444D (domain or fragment, mouse, UniProt P26039 2300-2541, looked up)
chain: B1 chain with V145D
B6: talin 2300–2541 L2515D/A2518D (domain or fragment)
chain: B1 chain with L216D, A219D
B7: talin 2300–2541 I2316A (domain or fragment, mouse, UniProt P26039 2300-2541, looked up)
chain: B1 chain with I17A
B8: talin 2300–2541 K2445D (domain or fragment, mouse, UniProt P26039 2300-2541, looked up)
chain: B1 chain with K146D
B9: talin 2300–2541 D2385K/D2386N/D2447N (domain or fragment, mouse, UniProt P26039 2300-2541, looked up)
chain: B1 chain with D86K, D87N, D148N
B10: talin 2300–2541 Q2388R (domain or fragment, mouse, UniProt P26039 2300-2541, looked up)
chain: B1 chain with Q89R
B11: talin 2300–2541 R2519A (domain or fragment)
chain: B1 chain with R220A
B12: talin 2300–2541 L2309A (domain or fragment, mouse, UniProt P26039 2300-2541, looked up)
chain: B1 chain with L10A
B13: talin 2300–2541 R2513A (domain or fragment, mouse, UniProt P26039 2300-2541, looked up)
chain: B1 chain with R214A
B14: talin 2300–2541 K2443D (domain or fragment, mouse, UniProt P26039 2300-2541, looked up)
chain: B1 chain with K144D
B15: talin 2300–2541 D2447N (domain or fragment, mouse, UniProt P26039 2300-2541, looked up)
chain: B1 chain with D148N
B16: talin 2300–2541 R2526A (domain or fragment)
chain: B1 chain with R227A
B17: talin 2300–2541 L2515D (domain or fragment)
chain: B1 chain with L216D
B18: talin 2300–2541 D2385K/D2386N (domain or fragment, mouse, UniProt P26039 2300-2541, looked up)
chain: B1 chain with D86K, D87N
B19: talin 2300–2541 R2526G (domain or fragment)
chain: B1 chain with R227G
B20: talin 2300–2541 K2443D/V2444D/K2445D (domain or fragment, mouse, UniProt P26039 2300-2541, looked up)
chain: B1 chain with K144D, V145D, K146D
B21: talin 2300–2541 R2510A (domain or fragment, mouse, UniProt P26039 2300-2541, looked up)
chain: B1 chain with R211A
B22: talin 2300–2541 A2518D (domain or fragment)
chain: B1 chain with A219D
B23: talin 2300–2541 I2316A/L2323A (domain or fragment, mouse, UniProt P26039 2300-2541, looked up)
chain: B1 chain with I17A, L24A
B24: talin 2300–2541 L2309A/L2323A (domain or fragment, mouse, UniProt P26039 2300-2541, looked up)
chain: B1 chain with L10A, L24A
B25: talin 2300–2541 Q2388D (domain or fragment, mouse, UniProt P26039 2300-2541, looked up)
chain: B1 chain with Q89D
B26: talin 2334–2541 (upstream helix deleted) (domain or fragment, mouse, UniProt P26039 2334-2541, looked up)
chain: EADESLNFEEQILEAAKSIAAATSALVKAASAAQRELVAQGKVGAIPANALDDGQWSQGLISAARMVAAATNNLCEAANAAVQGHASQEKLISSAKQVAASTAQLLVACKVKADQDSEAMKRLQAAGNAVKRASDNLVKAAQKAAAFEDQENETVVVKEKMVGGIAQIIAAQEEMLRKERELEEARKKLAQIRQQQYKFLPSELRDEH

molecular target: filamentous actin (F-actin) from rabbit skeletal muscle (rabbit, UniProt P68135 1-377); test: co-sedimentation

co-sedimentation pellet (% of WT)	Binder
100 ± 3 % of WT	B1
95 ± 5 % of WT	B2
62 ± 13 % of WT	B3
127 ± 3 % of WT	B4
54 ± 10 % of WT	B5
42 ± 7 % of WT	B6
96 ± 9 % of WT	B7
48 ± 10 % of WT	B8
138 ± 16 % of WT	B9
102 ± 9 % of WT	B10
37 ± 3 % of WT	B11
113 ± 3 % of WT	B12
66 ± 14 % of WT	B13
43 ± 5 % of WT	B14
144 ± 8 % of WT	B15
37 ± 9 % of WT	B16
36 ± 6 % of WT	B17
113 ± 13 % of WT	B18
33 ± 5 % of WT	B19
27 ± 6 % of WT	B20
77 ± 5 % of WT	B21
43 ± 10 % of WT	B22
135 ± 13 % of WT	B23
154 ± 7 % of WT	B24
59 ± 5 % of WT	B25
262 ± 18 % of WT	B26

Molecular target: the molecule itself
Test: crystal structure

Binder	binding result
MVGGIAQIIAAQEEMLRKERELEEARKKLAQIRQQQYKFLPSELRDEH (domain or fragment, mouse, UniProt P26039 2494-2541, looked up, also: selenomethionine in derivative used for phasing) [talin 2494–2541 (dimerisation domain)]	binds

Molecular target: the molecule itself
Test: SEC + other: NMR

Binder	stoichiometry N
B1	2
B2	2
B3	2
B4	2
B5	2
B7	2
B8	2
B9	2
B10	2
B12	2
B13	2
B14	2
B15	2
B18	2
B20	2
B21	2
B23	2
B24	2
B25	2
B26	2

Reference: PMC2168396 (The EMBO Journal, 2007)
